The values that follow come from article PMC6913698.

Data set [1] addresses T1, His-TF-TaGATA1 (Triticum aestivum (line CI12633), UniProt A0A5K7NI72 1-181).
T1 sequence: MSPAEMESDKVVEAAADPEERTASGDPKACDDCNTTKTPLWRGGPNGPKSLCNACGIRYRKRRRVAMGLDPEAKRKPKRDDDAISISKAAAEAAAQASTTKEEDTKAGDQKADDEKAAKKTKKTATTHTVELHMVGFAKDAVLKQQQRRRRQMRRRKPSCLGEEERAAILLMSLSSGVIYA
Description: EMSA.

Data set [2] concerns the target T1, His-TF-TaGATA1. The data set is described as follows: competition.

B1: GATA-containing probe (dsDNA)
DNA 1: AGTCGACGTGGATAATGGATCCTCGAGTGGATAATTCGATC
DNA 2: GATCGAATTATCCACTCGAGGATCCATTATCCACGTCGACT
Regarding B1, in the data set with His-TF-TaGATA1 [1], the binding result is given as “binds”.

B2: unlabelled GATA-containing competitor (dsDNA)
DNA 1: B1 DNA 1
DNA 2: B1 DNA 2
For the molecule B2, the binding result with His-TF-TaGATA1 [2] is on record as “binds”.
